What is called EC50 (read off the curve) is the concentration needed to bring the measured effect to its halfway point. One may read the IC50 as the concentration at which inhibition is half-maximal. Read a low IC50 as greater potency in that assay. The koff is the first-order rate constant of dissociation. Read a low koff as slow dissociation. A word on the kon: it is the second-order rate constant of association. Read a high kon as faster complex formation.

Consider 5 molecules from patent US20110086026A1 (ROCHE PALO ALTO, published 2011).

For test [1], the target named is Cynomolgus IL-13Rα1 expressed in transfected Ba/F3 cells (Cynomolgus). The test can be described thus: FACS, transfected against parental Ba/F3 cells; secondary reagent only. A general note: In flow cytometry, cells or beads pass a laser one at a time.
For test [2] the target is unchanged. As to the kind of experiment: FACS on Ba/F3 cells transfected with Cynomolgus IL-13Rα1; secondary reagent only.
The target is the same in test [3]. As to the kind of experiment: FACS, transfected against parental Ba/F3 cells; negative control.
For test [4] the target is unchanged. As to the kind of experiment: FACS on Ba/F3 cells transfected with Cynomolgus IL-13Rα1; negative control.
Test [5] has as its target extracellular domain of IL-13Rα1 (R&D Systems, UK) (human) (UniProt P78552). As to the kind of experiment: ELISA, immobilized extracellular domain of human IL-13Rα1, detection with anti-goat IgG-POD, OD 405nm-492nm. (ELISA stands for enzyme-linked immunosorbent assay.)
The target of test [6] is T1, human IL-13Rα1 (human, UniProt P78552 22-427).
T1 sequence (looked up): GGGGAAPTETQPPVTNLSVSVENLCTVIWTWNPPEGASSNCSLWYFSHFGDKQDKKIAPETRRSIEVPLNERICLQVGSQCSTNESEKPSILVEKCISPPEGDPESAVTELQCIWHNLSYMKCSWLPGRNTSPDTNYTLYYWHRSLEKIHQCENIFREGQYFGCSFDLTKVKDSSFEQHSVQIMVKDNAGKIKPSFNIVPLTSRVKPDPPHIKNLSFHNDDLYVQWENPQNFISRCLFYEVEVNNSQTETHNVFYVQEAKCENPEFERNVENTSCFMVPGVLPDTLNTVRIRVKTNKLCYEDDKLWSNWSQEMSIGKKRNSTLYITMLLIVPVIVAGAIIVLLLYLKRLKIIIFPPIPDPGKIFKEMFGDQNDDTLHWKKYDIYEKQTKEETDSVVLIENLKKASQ
The test can be described thus: cell-based or functional assay.

Test [7] concerns the target T1, human IL-13Rα1. The test can be described thus: displacement of 125I-IL-13 on CHO cells expressing human IL-13Rα1 and IL-4Rα. In general terms: In a radioligand displacement assay an active substance lowers the binding of a labelled ligand.
The target in test [8] is Cynomolgus IL-13Rα1 expressed in transfected Ba/F3 cells (Cynomolgus). The test can be described thus: FACS, transfected against parental Ba/F3 cells, 10 µg/ml.
The target is the same in test [9]. As to the kind of experiment: FACS on Ba/F3 cells transfected with Cynomolgus IL-13Rα1, 10 µg/ml.
Test [10] addresses Chimeric protein murine IL-13Rα1:hFc (R&D Systems, UK) (mouse) (UniProt O09030). As to the kind of experiment: ELISA, immobilized murine IL-13Rα1:hFc, detection with anti-goat IgG-POD, OD 405nm.
The target in test [11] is T2, extracellular domain of hIL-13Rα1 cleaved from hIL-13Rα1:hFc chimeric protein (human, UniProt P78552 22-343).
T2 construct: extracellular domain; also called Cleaved hIL-13Rα1 molecules (MW 40 kDa)
T2 sequence (looked up): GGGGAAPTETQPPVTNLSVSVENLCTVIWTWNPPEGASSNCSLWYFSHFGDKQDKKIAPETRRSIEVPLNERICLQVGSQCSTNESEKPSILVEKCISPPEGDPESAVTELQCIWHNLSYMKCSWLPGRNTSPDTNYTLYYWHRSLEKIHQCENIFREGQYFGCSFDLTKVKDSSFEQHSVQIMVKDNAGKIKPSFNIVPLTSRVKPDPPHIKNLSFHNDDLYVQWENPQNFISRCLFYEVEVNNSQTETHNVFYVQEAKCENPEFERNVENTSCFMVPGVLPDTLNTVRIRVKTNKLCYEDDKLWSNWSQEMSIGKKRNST
The test can be described thus: SPR Biacore 3000, CM5 chip, HuMab captured by anti-hFcγ, cleaved hIL-13Rα1 as analyte, bivalent analyte model. The procedure: (§1) In these experiments, the affinity of the original IgG1 derived from hybridoma was compared with the affinities of the recombinant variant IgG1-Ala-Ala. For interaction analysis, a Biacore 3000 instrument was used. Running and reaction buffer was HBS-P (10 mM HEPES, 150 mM NaCl, 0.005% polysurfactant P, pH 7.4) at 25° C. Capturing antibody molecules (anti-hFcγ) were amine-coupled at a concentration of 20 μg/ml at a flow rate of 5 μl/min for 20 minutes. HuMabs were injected at concentrations of 10 μg/ml at a flow rate of 10 μl/min for 1 minute. Cleaved hIL-13 Rα1 molelcules (analyte) were injected for five minutes at eight concentrations between 1.56 nM and 200 nM and washed with HBS-P for five minutes. Regeneration of the surface was accomplished by two injections of 100 mM HCl for 1 min each. The chip, assay format and sequence of injections and kinetic data correspond to the description in Table 4. Kinetic data were calculated by fitting kinetic data to a bivalent analyte binding model.

Test [12] deals with T2, extracellular domain of hIL-13Rα1 …. As to the kind of experiment: SPR Biacore 3000, CM5 chip, HuMab captured by anti-hFcγ, cleaved hIL-13Rα1 as analyte, bivalent analyte model (kd1). Here is the method: as §1
Test [13] has the same target. The test can be described thus: SPR Biacore 3000, CM5 chip, HuMab captured by anti-hFcγ, cleaved hIL-13Rα1 as analyte, bivalent analyte model (ka1). The procedure:
as §1

For test [14] the target is unchanged. The test can be described thus: SPR Biacore 3000, C1 chip, HuMab captured by anti-hFcγ, cleaved hIL-13Rα1 as analyte, 1:1 Langmuir model. The procedure:
For interaction analysis, a Biacore 3000 instrument was used. Running and reaction buffer was HBS-P (10 mM HEPES, 150 mM NaCl, 0.005% polysurfactant P, pH 7.4) at 25° C. Capturing antibody molecules (anti-hFcγ) were amine-coupled at a concentration of 100 μg/ml at a flow rate of 5 μl/min for 20 minutes. HuMabs were injected at concentrations of 10 μg/ml at a flow rate of 10 μl/min for 30 seconds. Cleaved hIL-13Rα1 molecules (MW 40 kDa) were injected for 200 seconds at seven concentrations between 1.56 nM and 100 nM and washed with HBS-P for five minutes. Regeneration of the surface was accomplished by two injections of 100 mM HCl for 1 min each at a flow rate of […]. The chip, assay format and sequence of injections and kinetic data correspond to the description in the following Table 3. Kinetic data were calculated by fitting kinetic data to a 1:1 Langmuir binding model.

Sequence of Chimeric protein murine IL-13Rα1:hFc (R&D Systems, UK) (mouse) (O09030 26-340, change not shown): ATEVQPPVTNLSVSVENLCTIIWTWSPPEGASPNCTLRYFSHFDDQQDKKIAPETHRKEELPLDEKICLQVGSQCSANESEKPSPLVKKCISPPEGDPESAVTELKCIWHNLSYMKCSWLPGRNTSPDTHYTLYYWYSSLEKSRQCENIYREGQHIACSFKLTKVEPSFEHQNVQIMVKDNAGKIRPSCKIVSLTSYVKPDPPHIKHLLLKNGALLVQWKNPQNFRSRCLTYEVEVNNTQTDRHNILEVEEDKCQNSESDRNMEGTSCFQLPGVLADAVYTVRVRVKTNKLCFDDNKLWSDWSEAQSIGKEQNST

Consider Anti human IgG-FITC only (antibody), for which, in test [1], the Fold Increase in MFI in the presence of Cyno IL-13Rα1 was found to be 2.2. Moreover, in test [2], the MFI Ba/F3 Cyno IL-13Rα1 turned out to be 5.5 MFI.
As for Normal human IgG1 (Nordic) (antibody), the Fold Increase in MFI in the presence of Cyno IL-13Rα1 in test [3] amounted to 6.7. The molecule also displayed an MFI Ba/F3 Cyno IL-13Rα1 in test [4] of 10.2 MFI.
In [5], “polyclonal goat anti-hIL-13Rα1 antibody AF152 (R&D Systems)” came in with an EC50 (read off the curve) of 0.6 nM. Moreover, in the test with human IL-13Rα1 [6], the IC50, IL-13-induced Stat-6 phosphorylation in BSMC turned out to be 18.6 nM; the IC50, TF-1 proliferation in response to IL-13 is 13.5 nM; the IC50 for IL-4-induced TF-1 proliferation was 74.4 nM; the IC50 for inhibiting of CD23 upregulation on B-lymphocytes (IL-13 induced) came out at 13.6 nM. In the test with human IL-13Rα1 [6], this molecule gave an IC50 for inhibition of IL-13 induced CD23 upregulation on human monocytes of 62.9 nM and an average IC50, eotaxin release of HFL-1 cells in response to IL-13 of 11.5 nM. Besides, the IC50 with human IL-13Rα1 [7] worked out at 84.8 nM. In test [8], the Fold Increase in MFI in the presence of Cyno IL-13Rα1 came to 18. In test [9], the MFI Ba/F3 Cyno IL-13Rα1 was found to be 21.2 MFI. In test [10], this molecule showed an EC50 (read off the curve) of 0.2 nM.
On to Normal goat IgG (antibody), for which the Fold Increase in MFI in the presence of Cyno IL-13Rα1 in [3] was 2.4. In [4], this molecule displayed an MFI Ba/F3 Cyno IL-13Rα1 of 5.7 MFI.

B1: LC5002-005, mutant L234A; L235A (antibody, V domains shown)
VH: EVQVLDSGGGLVQPGGSLRLSCTASGFTFRLYTMSWVRQTPGRGLEWVSGISGSGLSTYFADSVKGRFTISRDNSKNTVYLQMNSLRAEDTAVYYCAKEGDWIYFDSWGQGTLVIVSS
VL: DIQMTQSPSSLSASVGDRVTITCRASQGISSWLAWYQQKPEKAPKSLIYAASSLQSGVPSRFSGSGSGTDFTLTISSLQPEDFATYYCQQYNSHPPTFGQGTKLEIKR
notes: Recombinant IgG1 variant; also called IgG1 ala-ala LC5002-005; recombinant variant IgG1-Ala-Ala
Regarding B1, the Kd is 2.8 nM in [11] and 0.21 nM in test [14]. Besides, the koff is 0.00042 s⁻¹ in test [12] and 0.00029 s⁻¹ in test [14]. Moreover, the kon in test [13] was determined as 153000 M⁻¹ s⁻¹; in [14], 1.4e+06 M⁻¹ s⁻¹.
